The values that follow come from the domain aggregation screens of Martell et al. (2025).
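Also: 20 min heating vs room temperature control held 20 min.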

This data set is described as follows: soluble fraction after stress (log2 fold change); higher = more stays soluble; pooled small domains, quantitative proteomics. Conditions: stress: 75 degC.
For “HMKAERLLALLTILLSGKRVSARWLSEELEVSERTVYRDVEALSEAGFPVYATTGRDGGFSLIDGF”, the “soluble fraction (log2)” value was -2.01.
As for “HMKAKPTLLTPYEERLKGWLETDSRRPKRDRRTGLALFAKLQQEGFTGSYTRVTEYIRRWRDSGG”, the figure is -2.87.
As for “HMKALPSAEDVALARESGRVLSTVLQTRAETQQIDFHDDKGAVRSVTLPTTALRLLLDVLTEIGQGNAV”, the figure is -0.106; as for “HMKALRNQDVVVGKPLAMAVYDQHGVLLLGRGHVVISESQRQQLLERGFSIDAEQLGRLRAAIEATQRV”, -1.17.
As for “HMKALYHQLVDLLKKRMESGMIPHDKLPSERELTAQYGVSRTTVRLALQELENTGYIYRRHGKGTFVSDI”, the figure is -2.85; as for “HMKANIGDQVFTQLKDQIINGEWRPGDRIPSEAQLIQLFGVSRGTVRQAVQKLAGEGLIVTRHGEGSFVQG”, -0.0329.
“HMKAQLQHIIGSNIKLARNTQGYTQEGLAERAEISVEHLKQVERGKKMLSVESLVNVANALQVSVDSLV”: the “soluble fraction (log2)” value turned out to be 0.0141.
The result for “HMKAQVKSVLDDIPGIGQTRRKALMRYFKSLEKIREASVEELKEADAMNERAAQSVYAFFHK” reads -0.775; that for “HMKAQVKSVLDEIPGVGPTRRKALMKHFTSIEEIKQAEFETLLEAEGMNRAAAQSVYDFFHN”, -0.232; that for “HMKDESQLVGAEGKAVTPLRPTGVALIGEKRLDVLTEGEFIPRNSDIIVSRVEGNKIIVKLKN”, 0.00394.
The result for “HMKDHLRFEILSFAGDLRNGVVKTRQEFETIFAFYDKYEEIITALKVHNGYVDSEFDFIKEKFKELKSK” reads -2.78; that for “HMKDLQAISERMEEIISFAKANDNEISLFIVQDIIKNKKTGIDEDLLNMALYQIKEQGIKVLPA”, -0.176; that for “HMKDSIQIPNVVGMTIKDAQSQYGKSFSIIEQNRTESTKPAGTILEQTPAGGDTVSKRDNIIIRVVVSLG”, -1.45.
As for “HMKDSKSALQEYALERKMGLPVYEVVDRSGPDHAPQFVIAVSLGEWRLEAKGASKRQAEQQAASLMLEEI”, the figure is -0.174; as for “HMKDYTIDDIINSKVEHPLGGYQSRFKVGEYEVSVVGGRQTNHGDFIHTFELAIFDKNNNFLRNLTPVTID”, 0.0559.
With “HMKEATTSPLDGIPGIGSKRKKALLSHFGSARSVARADIPDLMRVDGISRQVAETIYGWFHN”, the “soluble fraction (log2)” value is -0.417.
As for “HMKEDFPLLEQLRYTGEGADVTGTAEKMESIQALRSAADSGGFRATLGDIQQIPGGGLRFTLSLRGSR”, the figure is -0.0408.
The result for “HMKEDNPIVLINLQAKEGEWVFKGTGLPYVGKYHQHKNGEYMIGIGVLNLNHELKPDEIIIPNPNK” reads -0.362; that for “HMKEEDYEVFMRLINVRGIGPKSALNILGVISGQEMIQAIENDDIKRLKSLPGIGAKTAGQIVLDLKGKFV”, -0.746.
As for “HMKEFIPPVLDDVLKFFSGSLLPDWENQGRLFFSHYNSQGWRKGTGVQVTDWDSLANKWILDEKIKRDARS”, the figure is -0.489.
Take “HMKEGTIPPVVNRTLSDAEFVLKSYGYELGRVSEQHSDMPKDIVIKQSPEAGTVADPGTRVDVVVSIGKA”: the “soluble fraction (log2)” value was found to be 0.485.
In the case of “HMKEHDTLALRLTAILRKLNDGEKLVPRELAEEFNVGIRTIQRDLTERLSFLDLEKTNGAYSLPTRNL”, the “soluble fraction (log2)” value was -0.843.
As for “HMKEIIFRGIGEFILDYKSLVIEFLNKNNYANLSMDAPVDEVNKAVANNMLNEDFVTELLLFQRRVE”, the figure is -4.14; as for “HMKEILLITGKGLHSGQDDVYKSAQLSKLRYSVPEFIKSNLEISQLILSVETPLQKDGGDGALLIK”, -0.0322.
The result for “HMKEILVGVEPLSKKQIIIKKGIKGRSDYIIFEKKNYGLPENLKPEEVSIEIALKIIDEKKKRKA” reads -1.48.
The result for “HMKEIPTKKGDMLEIYEANGKYILKYPTFNITMPEVVKEIPKEAVDSYLAGKHDGEELINYANFGFWKS” reads -0.0757; that for “HMKEKDAYTSEILDTLKNAKLLVVEGTVYPLLTRLKNDGLLNYRWEESTSGPPRKYYGLTDEG”, -0.704.
On to “HMKEKIIKEPYDLFTTDKIGQALEVQALLARQGIKVQRRVDGTKSTLFLENYTQSEKDQALLAVVRSGIV”, for which the “soluble fraction (log2)” value was -0.719.
As for “HMKEKPLWAIRITELREEHYFTQTDVSKALGIAQTTYAGYETGRHEPDFETMIKIADIYKVSLDYLIGR”, the figure is -2.03; as for “HMKELFETLPDVLDAKLLASALSISKAGAYQLLNRPDFPTLQVGGWKLVTKQKLALWMEQHTN”, -3.39; as for “HMKELFGQRLREQRLKQNLTLEQLAEKANLSPNYVGMVERGLKEPGLATIVKLLNGLNVSADTLL”, -0.446.
The result for “HMKELLTKQQREEILETVKTKTPKDFGYTAEHWTTGFLGKWIEEHYEVEYKSKTSLYLVFKKASFTYHKPG” reads 0.24; that for “HMKELTARQIEILDFITNYEWRHGYWPSIRNIQVQFSYKSTNAVMGHLRALERKGAIERIPGQARTFRIH”, -3.53.
Consider “HMKEPFETMPDVMDAKQIAEALQISKAGAYNLLNSPDFPTLRIGGRKLVMKNELVEWLKSHTNRK”, for which the “soluble fraction (log2)” value worked out at 0.428.
On to “HMKEPPTLEEIKNYFASKLSTELESEKFFNYFESNGWLVGGKTPMKNWQSAANNWLINMSKFN”, for which the “soluble fraction (log2)” value was -0.853.
The result for “HMKEPQLGPVRKWSDQTGNFGIEAQFVKREGDNILLKRADQRTISIPLEKLSDADQEHLKQEEQKQAME” reads -0.333; that for “HMKEQLEAYVNRLFADAALTIRNAEVRQEILQHALDRYDDLIASGKTEQEAYDETVSGIGDVSGLYEHK”, -0.584; that for “HMKETKVIHVHLIFKKTSRFFGSISAIYSEFTAEEIGITEETLRHKGLSDGVSFATKKAIIQQGVLIR”, -2.78.
The result for “HMKEVDSESAFAERGISEVWIPALQKMGILTLEALDAANPNKVFNDLGGMRKKLKIDAAMPTKDEVTAWIQ” reads 0.0576; that for “HMKEVKPSDFFLSKLDEDHNLIEKFNALSSFKQKEFIEYIDSAKQEKTKHDRFEKIKPILLSNIGLNDKYR”, -0.0777.
As for “HMKEVVVPDYFLKQLQKNKKAFITFNNFSPSHKREYVEWITEAKTEETKNRRMKSAIEWMSEGKSRNWKYI”, the figure is -0.589.
For “HMKFGETLIDLRKRNGLTQEELAAKLYVTRQAVSRWERGEVTPGIDMLKLIANVLNEPVAHLLDW”, the “soluble fraction (log2)” value was -2.14.
As for “HMKFNRPMSEILQEWENKLGTTSDAELAGLIGVVTMTINRWRKNETKPDLSALNRYDRIVNLVVNNIKQL”, the figure is -2.27.
The result for “HMKFPPELVEFIEGLSLLKPPLNYATVHRRAEKLAIKKGWASPSYSTVRNIIRKLSPALTTLAHEG” reads -2.57; that for “HMKGAADPAIKQKVLDYLDTVEKAKSKEIAKAISEEKSAVDLAVKELAFEDKVEYLYITTTFVALKGKVA”, -1.51.
The result for “HMKGALQIAIEEGFNWNLDKKYWNIVQSTVIAKRLGLKTTSGLKEAIEGMGGEYKRTKKARGYLVPTFKD” reads -3.98.
Take “HMKGDYWIIDLDKNYQYAIISEPDRQYLWILSRSPNMDTQTLETLKEKIRSKGFDLTYLKQTL”: the “soluble fraction (log2)” value is -1.53.
Consider “HMKGHQASTTWISERVKDIIKEDPTLGARKLQKRLEIHYNIELSYFKVWSGKNLQWMIFMVL”, for which the “soluble fraction (log2)” value is 0.0846.
“HMKGSYTVKSGDNLWSIARKFYGGSGSTWTKIYSANKSTIESTARRYGRSSSDNGHWIYPGTVLVIP”: the “soluble fraction (log2)” value is -0.924.
Take “HMKGVSFEEIERAVRTAQNPEADETAQQHAGMVFSRMEGNELFDKLVQSSSTIGKKITGLMDYYL”: the “soluble fraction (log2)” value was -0.239.
As for “HMKGYIGESKARNIALKKAPGASITKFEFDKDDGIAVYEVELRKGIYEYELKINAVTGAIIEFEKDIE”, the figure is -2.2; as for “HMKHKYWEIKERIKKDILNEVYKKGESIPSERDLAGIYDVTRVTVQKAMAMLVQEGYIERIHGKGMFVLKN”, -2.32; as for “HMKHRFVVGEVLSIGKLQHEITLKTAQGERKFQLDKQDLPASIQDGAKVRAELNEAGRVIDVHPLK”, -0.0848.
As for “HMKHYMKITDISLQTRDKNRVNVSVDGKYRFSLDVFQVGELGLKVGREYTDEELTALEDESQFG”, the figure is -1.11.
The result for “HMKIATIELVKEAVKSKLGKFTKRDIMELVPSVGKTTIENMLKQLIGEGYIERHGKGRATFYVK” reads -0.761.
For the sequence “HMKIDANTFTSIEKQLFVLLSKTPTPMGSIFVALAKEDKEAVWEVIHFLEAENRLIMNEDGTIQL”, the “soluble fraction (log2)” value was -2.14.
As for “HMKIDEVSFAYIERTLFSMLGKLPTPVNKVIATIGEEKKETIWEVIRFLESENKLITNEDGTLQL”, the figure is -2.46; as for “HMKIDNIIIYITGGVKKEGVYELPDGSRISDAIEQAEGLKANADTSSINLAYKLEDGMKIKIPLQGEN”, -0.181.
The result for “HMKIDNPEYQKIMDMIPYFFQTRNYDEAIEALSYVIEQEPSFSEAYNKRATFYFMMGDFENSMKDIESTLA” reads -0.288; that for “HMKIEEVIEKLKTDSIISRKEYEDIVRQINPNLSDRTIFWQLAKLQDMGVLQKIGQNSFHVRN”, -0.183; that for “HMKIERKGDESYLSFVERATSALSDGLIDYQQWGRAVVGEDLYSEENTRRIAKFFAQFIQNLEND”, -2.62.
As for “HMKIKAKYTTDFGIRIYAPKPGKNYWRISYVDLDGKLRDTTATSEKTALDKSAEIEVLLRNN”, the figure is -2.2; as for “HMKILALETSAKAVSAAVSENGRILASGYQDTGLTHSRTLMPIVEHILKNTDLKLSDMDAIAVAVGPG”, 0.144.
Turning to “HMKIMSLSERHQKILELLKVNGIVSVNSLSRQLNVSSVTIRKDLGLLEEKKLLYRSHGGAIQID”, the “soluble fraction (log2)” value is -3.35.
The result for “HMKINYNEFLRRFLGEKEGDIIEMETGKRIGTHKGYWFHTIGQRKGLGLGGGPWFVIRKDIDENIIYVSHG” reads -1.3; that for “HMKIPGIGDVYAILARVYSGPQFTWIEAGFPEDDTKAYSYLHTAIRKGSAIAILQAMRTSGALTPTIEKE”, -0.0245; that for “HMKIPPIMFVRAIMVAGRQSMAIMDIEGVGTGIIVRSGYSFSNGEGKVVRIGPDKVTVNWSGKHLDLAPG”, -3.8.
Turning to “HMKIPQFAVIKQYLEQQIKTAQWAPGRQIPTEQSLADTFSVSRMTARRAVQQLADAGLLERTQGSGTFVAD”, the “soluble fraction (log2)” value was -0.162.
The result for “HMKISDTITEKILTDNNFSMELAKKIGIQQGSLLSSIRRNRDSRILRLWEAVMFYKEQGYTEEEIFTDY” reads -2.61; that for “HMKISELAKKVIASGRVTQWAKHPHIYFVNGMRKVAIELDVNGVFSISMRYYPYDPADRELVENLIRGD”, -2.67.
